B1: 28-bp mouse Igf2-P0 crystallization oligo (dsDNA)
DNA 1: TGTGGGCGTGGCACAGGTAAAAAGGGCA
DNA 2: TGCCCTTTTTACCTGTGCCACGCCCACA
B2: 26-bp mouse Igf2-P0 crystallization oligo (dsDNA)
DNA 1: GTGGGCGTGGCACAGGTAAAAAGGGC
DNA 2: GCCCTTTTTACCTGTGCCACGCCCAC

How the values were obtained:
Test in all cases: X-ray crystallography
[1] = biological target: mZFP568 ZF2-11 (Mus musculus, UniProt E9PYI1 391-665)
[2] = biological target: mZFP568 ZF1-11 (Mus musculus, UniProt E9PYI1 363-665)
[3] = biological target: mZFP568 ZF1-10 (Mus musculus, UniProt E9PYI1 363-637)
mZFP568 ZF1-10, sequence (E9PYI1 363-637): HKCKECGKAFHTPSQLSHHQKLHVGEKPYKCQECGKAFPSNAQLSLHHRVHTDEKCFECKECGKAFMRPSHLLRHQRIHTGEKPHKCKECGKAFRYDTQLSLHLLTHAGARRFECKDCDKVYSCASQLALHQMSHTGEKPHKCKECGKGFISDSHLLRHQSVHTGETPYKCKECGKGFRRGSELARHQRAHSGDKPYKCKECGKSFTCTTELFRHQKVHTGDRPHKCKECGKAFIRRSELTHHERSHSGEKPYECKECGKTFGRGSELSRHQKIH

mZFP568 ZF1-11, sequence (E9PYI1 363-665): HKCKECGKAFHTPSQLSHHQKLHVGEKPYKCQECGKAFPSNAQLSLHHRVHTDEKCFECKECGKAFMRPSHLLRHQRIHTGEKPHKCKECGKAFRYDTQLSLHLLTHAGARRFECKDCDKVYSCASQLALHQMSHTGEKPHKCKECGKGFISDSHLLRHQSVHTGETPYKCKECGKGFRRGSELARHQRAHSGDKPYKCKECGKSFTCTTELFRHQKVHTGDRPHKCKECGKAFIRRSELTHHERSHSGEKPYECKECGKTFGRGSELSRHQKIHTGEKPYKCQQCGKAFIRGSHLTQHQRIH
mZFP568 ZF2-11, sequence (E9PYI1 391-665): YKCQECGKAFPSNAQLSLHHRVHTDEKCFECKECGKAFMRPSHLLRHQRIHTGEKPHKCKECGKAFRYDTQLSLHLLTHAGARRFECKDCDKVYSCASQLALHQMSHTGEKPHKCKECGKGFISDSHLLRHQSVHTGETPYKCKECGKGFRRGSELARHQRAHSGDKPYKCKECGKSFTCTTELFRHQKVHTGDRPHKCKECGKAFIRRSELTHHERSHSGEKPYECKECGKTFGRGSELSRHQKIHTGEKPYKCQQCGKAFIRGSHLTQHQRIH

Binder | binding result [1] | binding result [2] | binding result [3]
B1 | binds | binds | –
B2 | – | – | binds
